Two molecules from patent US20240261333A1 (published 2024) can be followed below.

What all share (test): co-IP with anti-FLAG, N-FLAG B3GNT2, mass spectrometry
One experiment deals with T1, HNRNPM (human, UniProt P52272 2-730).
T1 construct: also called NP_005959.2 (+1)
T1 sequence (looked up): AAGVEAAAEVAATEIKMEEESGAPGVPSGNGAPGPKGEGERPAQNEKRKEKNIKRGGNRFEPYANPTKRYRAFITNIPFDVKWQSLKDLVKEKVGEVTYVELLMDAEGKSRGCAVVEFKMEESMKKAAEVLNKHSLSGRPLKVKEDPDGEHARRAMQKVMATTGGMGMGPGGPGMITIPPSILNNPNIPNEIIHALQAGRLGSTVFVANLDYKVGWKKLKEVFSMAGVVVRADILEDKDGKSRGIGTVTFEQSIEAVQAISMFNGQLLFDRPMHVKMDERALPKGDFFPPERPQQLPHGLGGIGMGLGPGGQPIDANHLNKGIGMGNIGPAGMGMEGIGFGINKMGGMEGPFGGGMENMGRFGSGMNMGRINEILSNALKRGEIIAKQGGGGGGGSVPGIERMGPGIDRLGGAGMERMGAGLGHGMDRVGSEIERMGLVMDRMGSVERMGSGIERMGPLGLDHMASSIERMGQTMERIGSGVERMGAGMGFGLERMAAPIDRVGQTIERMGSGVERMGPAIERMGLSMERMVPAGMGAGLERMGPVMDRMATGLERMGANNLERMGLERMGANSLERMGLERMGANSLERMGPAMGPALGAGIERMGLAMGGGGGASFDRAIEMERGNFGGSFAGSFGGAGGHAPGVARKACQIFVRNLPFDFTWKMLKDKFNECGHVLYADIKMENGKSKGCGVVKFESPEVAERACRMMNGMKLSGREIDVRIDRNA
Here is the method:
(§1) Cells were plated in 10-cm cell culture dishes and grown to 60-80% confluency. For each condition, two biological replicates were harvested for co-IP. Cells were washed with PBS and 4 mL of lysis buffer (20 mM HEPES, 1% Triton X-100, 150 mM NaCl, 1 mM EDTA, and 10% glycerol) containing protease inhibitor cocktail was added. Cells were scraped and lysate was incubated at 4° C. under rotary agitation for 1 h. Lysate was centrifuged at 14,000×g for 10 min at 4° C. Supernatant was transferred to a new tube and an aliquot was taken as the input. […] For Western blots, 10 μg/mL Chicken Anti-FLAG (Aves labs ET-DY100) and IgY control (R&D Systems AB-101-C) antibodies were biotinylated (Thermo Fisher Scientific 90407) and added to the respective conditions. Lysates with antibodies were incubated at 4° C. under rotary agitation overnight. For each mL of lysate, 50 μL of Pierce Protein A/G Magnetic Beads (Mass spectrometry; Thermo Fisher Scientific 88803) or Pierce Streptavidin Magnetic Beads (Western blot; Thermo Fisher Scientific 88817) was washed twice with lysis buffer. Lysates with antibodies were added to the beads and incubated at 4° C. under rotary agitation for 4 h. Beads were washed with lysis buffer 3 times and resuspended in lysis buffer for storage.
(§2) Magnetic beads were resuspended in 100 mM Tris pH 7.8, reduced, alkylated and digested with trypsin at 37° ° C. overnight. This solution was subjected to solid phase extraction to concentrate the peptides and remove unwanted reagents followed by injection onto a Shimadzu HPLC with fraction collector. Eight fractions were collected and after concentration were injected on a Waters NanoAcquity HPLC equipped with a self-packed Aeris 3 μm C18 analytical column 0.075 mm by 20 cm, (Phenomenex). Peptides were eluted using standard reverse-phase gradients. The effluent from the column was analyzed using a Thermo Orbitrap Elite mass spectrometer (nanospray configuration) operated in a data dependent manner for 54 minutes. The resulting fragmentation spectra were correlated against the known database using Proteome Discover 1.4 (Thermo Fisher Scientific).

Another experiment concerns the target T2, PURA (human, UniProt Q00577 2-322).
T2 construct: also called NP_005850.1
T2 sequence (looked up): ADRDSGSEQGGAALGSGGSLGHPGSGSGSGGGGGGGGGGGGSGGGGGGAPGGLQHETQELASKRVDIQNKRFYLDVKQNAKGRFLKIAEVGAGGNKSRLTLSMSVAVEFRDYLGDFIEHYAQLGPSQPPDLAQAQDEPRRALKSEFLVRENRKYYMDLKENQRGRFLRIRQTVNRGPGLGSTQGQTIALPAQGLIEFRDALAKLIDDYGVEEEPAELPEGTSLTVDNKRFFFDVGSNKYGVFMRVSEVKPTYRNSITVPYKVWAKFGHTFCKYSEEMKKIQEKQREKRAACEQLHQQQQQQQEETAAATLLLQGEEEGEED
Here is the method: as §1, §2

The next experiment addresses T3, CLTC (human, UniProt Q00610 2-1675, limits assumed).
T3 construct: also called NP_001275582.1 (+2)
As to the method: as §1, §2

The target of a further experiment is T4, PLOD1 (human, UniProt Q02809 19-727).
T4 construct: also called NP_000293.2 (+1)
T4 sequence (looked up): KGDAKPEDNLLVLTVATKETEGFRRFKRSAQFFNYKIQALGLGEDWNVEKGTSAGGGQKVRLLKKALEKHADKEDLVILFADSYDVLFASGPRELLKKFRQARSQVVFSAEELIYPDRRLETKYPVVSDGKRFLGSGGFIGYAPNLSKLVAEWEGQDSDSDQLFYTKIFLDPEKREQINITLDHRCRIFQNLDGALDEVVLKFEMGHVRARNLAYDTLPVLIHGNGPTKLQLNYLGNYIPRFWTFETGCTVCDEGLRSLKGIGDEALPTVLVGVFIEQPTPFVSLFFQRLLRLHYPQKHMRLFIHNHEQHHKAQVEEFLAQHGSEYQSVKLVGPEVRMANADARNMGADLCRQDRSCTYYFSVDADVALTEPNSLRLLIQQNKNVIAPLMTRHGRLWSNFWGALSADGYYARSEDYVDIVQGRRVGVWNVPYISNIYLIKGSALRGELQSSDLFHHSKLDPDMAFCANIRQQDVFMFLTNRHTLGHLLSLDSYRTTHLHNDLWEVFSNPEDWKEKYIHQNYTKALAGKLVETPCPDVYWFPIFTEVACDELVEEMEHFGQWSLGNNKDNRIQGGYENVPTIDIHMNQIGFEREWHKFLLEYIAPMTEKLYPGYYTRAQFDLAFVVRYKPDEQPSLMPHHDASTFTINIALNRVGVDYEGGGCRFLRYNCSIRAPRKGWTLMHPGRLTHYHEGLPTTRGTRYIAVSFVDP
Here is the method:
as §1, §2

T3 sequence (Q00610 2-1675 limits assumed): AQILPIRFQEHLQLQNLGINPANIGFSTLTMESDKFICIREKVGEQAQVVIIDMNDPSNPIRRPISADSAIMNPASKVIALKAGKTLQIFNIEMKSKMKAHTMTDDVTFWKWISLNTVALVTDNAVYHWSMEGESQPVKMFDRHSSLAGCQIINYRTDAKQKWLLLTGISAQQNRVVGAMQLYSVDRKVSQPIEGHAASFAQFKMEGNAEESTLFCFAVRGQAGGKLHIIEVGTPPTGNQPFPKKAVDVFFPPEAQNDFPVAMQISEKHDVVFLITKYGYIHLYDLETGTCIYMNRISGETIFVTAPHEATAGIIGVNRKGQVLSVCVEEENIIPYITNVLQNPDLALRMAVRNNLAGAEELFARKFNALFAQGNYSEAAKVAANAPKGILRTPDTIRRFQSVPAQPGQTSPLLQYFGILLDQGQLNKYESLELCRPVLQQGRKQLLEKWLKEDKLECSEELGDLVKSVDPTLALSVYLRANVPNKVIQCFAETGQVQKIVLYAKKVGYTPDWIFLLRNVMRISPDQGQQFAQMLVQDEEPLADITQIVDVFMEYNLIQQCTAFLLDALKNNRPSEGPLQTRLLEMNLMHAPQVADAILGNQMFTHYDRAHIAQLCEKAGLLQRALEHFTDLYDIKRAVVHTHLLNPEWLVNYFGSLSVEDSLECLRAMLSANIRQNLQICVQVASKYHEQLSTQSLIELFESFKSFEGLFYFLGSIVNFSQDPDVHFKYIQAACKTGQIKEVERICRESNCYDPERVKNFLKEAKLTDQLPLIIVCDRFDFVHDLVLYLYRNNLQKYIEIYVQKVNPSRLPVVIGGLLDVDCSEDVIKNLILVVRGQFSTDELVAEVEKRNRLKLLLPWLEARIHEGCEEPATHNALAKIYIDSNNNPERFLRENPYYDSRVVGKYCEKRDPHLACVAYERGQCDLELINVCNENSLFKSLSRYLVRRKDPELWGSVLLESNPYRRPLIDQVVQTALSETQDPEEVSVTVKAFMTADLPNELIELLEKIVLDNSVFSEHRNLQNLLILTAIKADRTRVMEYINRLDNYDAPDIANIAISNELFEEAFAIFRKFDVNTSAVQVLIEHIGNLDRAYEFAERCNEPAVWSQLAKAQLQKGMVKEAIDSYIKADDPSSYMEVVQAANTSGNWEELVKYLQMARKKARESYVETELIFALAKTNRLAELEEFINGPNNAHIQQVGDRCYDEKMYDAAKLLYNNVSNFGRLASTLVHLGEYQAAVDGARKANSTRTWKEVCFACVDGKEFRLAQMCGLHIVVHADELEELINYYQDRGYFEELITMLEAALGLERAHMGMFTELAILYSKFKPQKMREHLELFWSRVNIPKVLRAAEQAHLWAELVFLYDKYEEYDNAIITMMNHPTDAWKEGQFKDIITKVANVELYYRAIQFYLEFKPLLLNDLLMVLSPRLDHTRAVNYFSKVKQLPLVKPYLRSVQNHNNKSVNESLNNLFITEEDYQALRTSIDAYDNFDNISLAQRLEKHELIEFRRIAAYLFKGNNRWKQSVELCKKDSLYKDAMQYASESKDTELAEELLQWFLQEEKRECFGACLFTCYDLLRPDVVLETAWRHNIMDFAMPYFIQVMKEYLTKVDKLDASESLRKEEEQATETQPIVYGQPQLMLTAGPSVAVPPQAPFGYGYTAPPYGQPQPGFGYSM

B1: N-terminal FLAG tagged B3GNT2 (enzyme, human, UniProt Q9NY97 1-397, looked up)
chain: MSVGRRRIKLLGILMMANVFIYFIMEVSKSSSQEKNGKGEVIIPKEKFWKISTPPEAYWNREQEKLNRQYNPILSMLTNQTGEAGRLSNISHLNYCEPDLRVTSVVTGFNNLPDRFKDFLLYLRCRNYSLLIDQPDKCAKKPFLLLAIKSLTPHFARRQAIRESWGQESNAGNQTVVRVFLLGQTPPEDNHPDLSDMLKFESEKHQDILMWNYRDTFFNLSLKEVLFLRWVSTSCPDTEFVFKGDDDVFVNTHHILNYLNSLSKTKAKDLFIGDVIHNAGPHRDKKLKYYIPEVVYSGLYPPYAGGGGFLYSGHLALRLYHITDQVHLYPIDDVYTGMCLQKLGLVPEKHKGFRTFDIEEKNKNNICSYVDLMLVHSRKPQEMIDIWSQLQSAHLKC
notes: FLAG-tagged ORF overexpressed in cells; pulled down from lysate with mouse anti-FLAG; also called N-FLAG B3GNT2; N-term FLAG; not shown: N-terminal FLAG tag
As for B1, the “co-IP mass spectrometry count” value with HNRNPM turned out to be 6.

B2: N-terminal FLAG tagged B3GNT2 (enzyme, human, UniProt Q9NY97 1-397, looked up)
chain: MSVGRRRIKLLGILMMANVFIYFIMEVSKSSSQEKNGKGEVIIPKEKFWKISTPPEAYWNREQEKLNRQYNPILSMLTNQTGEAGRLSNISHLNYCEPDLRVTSVVTGFNNLPDRFKDFLLYLRCRNYSLLIDQPDKCAKKPFLLLAIKSLTPHFARRQAIRESWGQESNAGNQTVVRVFLLGQTPPEDNHPDLSDMLKFESEKHQDILMWNYRDTFFNLSLKEVLFLRWVSTSCPDTEFVFKGDDDVFVNTHHILNYLNSLSKTKAKDLFIGDVIHNAGPHRDKKLKYYIPEVVYSGLYPPYAGGGGFLYSGHLALRLYHITDQVHLYPIDDVYTGMCLQKLGLVPEKHKGFRTFDIEEKNKNNICSYVDLMLVHSRKPQEMIDIWSQLQSAHLKC
notes: FLAG-tagged ORF overexpressed in A375 cells; pulled down from the lysate with mouse anti-FLAG; also called N-FLAG B3GNT2; N-term FLAG; not shown: N-terminal FLAG tag
As for B2, the “co-IP/MS count, N-term FLAG” value with PURA was 0; with CLTC it was 6; with PLOD1, 0.
